In data set [1] the target is T1, hBVR K143A (Homo sapiens, UniProt P53004 SEQ:1-296, K143A).
T1 sequence: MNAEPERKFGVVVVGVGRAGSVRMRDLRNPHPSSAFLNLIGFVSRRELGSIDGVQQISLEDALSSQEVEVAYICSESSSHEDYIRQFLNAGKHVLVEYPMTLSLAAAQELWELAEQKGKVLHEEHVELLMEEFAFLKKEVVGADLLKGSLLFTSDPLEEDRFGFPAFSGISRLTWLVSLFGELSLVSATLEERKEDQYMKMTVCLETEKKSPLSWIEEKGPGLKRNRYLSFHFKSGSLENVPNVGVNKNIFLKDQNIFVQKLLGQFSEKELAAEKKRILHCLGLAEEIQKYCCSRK
Briefly: EMSA; signal same as native hBVR with zero AP-1 DNA. Particulars: tags: rabbit reticulocyte lysate; chain copies: 2; label: 32P 5'. The protocol: (§1) As with native gel analysis, in vitro translated proteins were assayed for DNA binding immediately after synthesis. 1 μl of translated material was added to 5000-500,000 cpm of [³²P]-labeled DNA fragment representing approximately 2-3 ng of DNA. 0.1 μg of poly (dI•dC) in 10 μl of DNA binding buffer was added to the labeled DNA. After incubating samples for 20 min at room temperature, 5 μl loading buffer was added. The samples were resolved on 12% native polyacrylamide gel with 35 m Amp at 4° C. The gels were processed as described above. Dried gels were put on two pieces of film separated by a piece of paper. Autoradiography was done at −70° C. for different time periods.
(§2) For this set of experiments, the [³⁵S] methionine-labeled mutant BVR proteins were generated by in vitro translation and assayed on a 12% native gel for detection of the ˜69 kDa protein band and analysis of DNA for complex formation. The 100-mer DNA fragment with two AP-1 sites or without an AP-1 site were used. On the native gel the high molecular weight band was not detected with the mutated proteins.
For orientation: In EMSA bound probe runs differently from free probe, usually more slowly.

Data set [2] concerns the target T2, hBVR L157A (Homo sapiens, UniProt P53004 SEQ:1-296, L157A).
T2 sequence: T1 sequence with A143K, L157A
Described as above. Particulars: tags: rabbit reticulocyte lysate; chain copies: 2; label: 32P 5'. The protocol:
as §1, §2

Data set [3] addresses T3, hBVR L150A (Homo sapiens, UniProt P53004 SEQ:1-296, L150A).
T3 sequence: T1 sequence with A143K, L150A
The description is as above. Particulars: tags: rabbit reticulocyte lysate; chain copies: 2; label: 32P 5'. The protocol:
as §1, §2

Data set [4] addresses T4, biliverdin reductase (hBVR) (Homo sapiens, UniProt P53004 SEQ:1-296).
T4 chain: T1 sequence with A143K
Put plainly: EMSA; 10 mM Tris pH 7.4, 50 mM NaCl, 1 mM MgCl2, 1 mM EDTA, poly(dI-dC), room temperature. Particulars: tags: rabbit reticulocyte lysate, 35S-Met labelled; chain copies: 2 (stated homodimer); label: 32P 5'. The protocol:
as §1
(§3) To determine whether the synthesized HBVR binds to DNA, the in vitro translated hBVR was incubated with [³²P]-labeled 56-mer or 100-mer DNA fragments. An identical 56 bp fragment in which the AP-I site was substituted with an unrelated sequence of equal length was used as control DNA. In addition, two identical 100 bp fragments with one AP-1 or zero AP-1 sites were synthesized and used as controls (OL.619, OL.620; OL.623-OL.630, Table 1). […] Also, binding of E. coli expressed hBVR protein, which is in monomeric form, to the 100-mer DNA fragment with two AP-1 sites was not detected.

In data set [5] the target is T5, heme oxygenase-1 (hHO-1), E. coli expressed (Homo sapiens, UniProt P09601 P09601:1-288).
T5 sequence: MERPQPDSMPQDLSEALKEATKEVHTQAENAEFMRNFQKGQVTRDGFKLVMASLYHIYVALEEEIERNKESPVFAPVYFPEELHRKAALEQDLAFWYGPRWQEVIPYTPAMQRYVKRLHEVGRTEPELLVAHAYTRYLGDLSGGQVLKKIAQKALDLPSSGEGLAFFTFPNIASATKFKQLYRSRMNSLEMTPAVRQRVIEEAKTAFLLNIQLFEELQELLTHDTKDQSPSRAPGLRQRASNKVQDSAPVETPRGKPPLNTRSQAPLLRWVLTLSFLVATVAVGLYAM
Briefly: EMSA; specificity control. Particulars: label: 32P 5'.

For data set [6], the target named is T6, heme oxygenase-1 (HO-1), in vitro translated (UniProt P09601 P09601:1-288).
T6 sequence: T5 sequence
Briefly: EMSA; specificity control. Particulars: tags: rabbit reticulocyte lysate; label: 32P 5'.

Data set [7] concerns the target T1, hBVR K143A. Briefly: EMSA; background signal only. Particulars: tags: rabbit reticulocyte lysate; chain copies: 2; label: 32P 5'. The protocol:
as §1, §2

The target of data set [8] is T2, hBVR L157A. Put plainly: EMSA; background signal only. Particulars: tags: rabbit reticulocyte lysate; chain copies: 2; label: 32P 5'. The protocol: as §1, §2
Data set [9] deals with T3, hBVR L150A. Briefly: EMSA; background signal only. Particulars: tags: rabbit reticulocyte lysate; chain copies: 2; label: 32P 5'. The protocol:
as §1, §2

Data set [10] concerns the molecule itself. Put plainly: native PAGE (approx. 69 kDa band) against SDS-PAGE (~35 and ~40 kDa bands) of in vitro translated protein. The protocol: The transcribed mRNA was translated in the presence of [35S] methionine using rabbit reticulocyte lysate. In vitro translation was performed using micrococcal nuclease treated rabbit reticulocyte lysate (Promega). 50 μl reaction mixture was prepared by using 35 μl lysate, 1 μl of 0.1 M DTT, 2 μl of 1 mM amino acid mixture minus methionine, 1 μl of RNase inhibitor and 5 μl translation grade [³⁵S] methionine. 5 μl transcribed mRNA was added to the above reaction mixture and immediately incubated at 30° C. for 90 minutes. The in vitro translated proteins were resolved on 12% SDS or native polyacrylamide gel along with rainbow or native high molecular weight markers, respectively (Amersham Pharmacia). The gels were fixed in 10% acetic acid and 30% methanol then treated with autoradiography enhancer (Amplify, Amersham Pharmacia) for 30 min and dried under vacuum at 80° C. for 2 h, and autoradiographed at −70° C.
In vitro translated protein was assayed on native gel immediately after synthesis. […] A portion of the translated protein was treated with SDS and analyzed on denaturing 12% polyacrylamide gel.
Next, whether the protein synthesized by reticulocyte lysate is in fact hBVR was tested. […] As shown in the autoradiogram, two prominent bands at ˜35 and ˜40 kDa were detected. hBVR, based on its predicted amino acid composition, has a molecular weight of ˜34 kDa (Maines et al., Eur. J. Biochem.

Data set [11] concerns the molecule itself. Put plainly: native 12% polyacrylamide gel, homodimer (~69 kDa band) formation. The protocol: In vitro translated protein was assayed on native gel immediately after synthesis. One μl of in vitro translated material was added to 2 μl (25 ng) of annealed, unlabelled control DNA fragment. To this 0.4 μg of poly dI•dC (Amersham Pharmacia) in 14 μl DNA binding buffer (10 mM Tris-chloride [pH 7.4], 50 mM NaCl, 1 mM MgCl₂, 1 mM EDTA, 1 mM DTT, 5% glycerol) was added. It was incubated for 5 min at room temperature and after adding 5 μl loading buffer (1.5×DNA binding buffer with bromophenol blue dye) samples were resolved on 12% native polyacrylamide gel in TAE buffer at 35 milliamps. The control DNA helps to prevent the formation of nonspecific protein aggregates, thereby increasing the resolution of protein bands (Halazonetis et al., Cell 55:917-924 (1988), which is hereby incorporated by reference in its entirety). A portion of the translated protein was treated with SDS and analyzed on denaturing 12% polyacrylamide gel.
as §2

Data set [12] addresses T4, biliverdin reductase (hBVR). Put plainly: EMSA. Particulars: tags: rabbit reticulocyte lysate, 35S-Met labelled; chain copies: 2 (stated homodimer); label: 32P 5'. The protocol:
as §1, §3

Substitutions are numbered along the chain they refer to.

The record followed here is patent publication US20050119205A1, “Methods of modulating heme oxygenase-1 expression and treating heme oxygenase-1 mediated conditions” (published 2005).

B1: 100-mer HO-1 promoter, two AP-1 sites (OL.623/OL.624) (dsDNA)
DNA 1: TCCTCAGCTGCTTTTATGCTGTGTCATGGTTGGGAGGGGTGATTAGCAGACAAAGGGAAGACAGATTTTGCTGAGTCACCCTCTGTTCCCTCTGCCTCAG
DNA 2: CTGAGGCAGAGGGAACAGAGGGTGACTCAGCAAAATCTGTCTTCCCTTTGTCTGCTAATCACCCCTCCCAACCATGACACAGCATAAAAGCAGCTGAGGA
Consider B1, for which the binding result with hBVR K143A [1] is “no binding”; with hBVR L157A [2], “no binding”; with hBVR L150A [3], “no binding”; in data set [4], “binds”; in data set [5], “no binding”; in data set [6] it was “no binding”.

B2: 100-mer, zero AP-1 sites (OL.625/OL.626) (dsDNA)
DNA 1: TCCTCAGCTGCTTTTATGCGATCCTCTGGTTGGGAGGGGTGATTAGCAGACAAAGGGAAGACAGATTTTGCGATCCTCCCCTCTGTTCCCTCTGCCTCAG
DNA 2: CTGAGGCAGAGGGAACAGAGGGGAGGATCGCAAAATCTGTCTTCCCTTTGTCTGCTAATCACCCCTCCCAACCAGAGGATCGCATAAAAGCAGCTGAGGA
For B2, the binding result (with hBVR K143A [7]; with hBVR L157A [8]; with hBVR L150A [9]; in [5]) was “no binding” throughout.

B3: in vitro translated human biliverdin reductase (hBVR) (enzyme)
chain: T1 sequence with A143K
notes: the entries concern its self-association into a homodimer; also called translated hBVR; native in vitro translated hBVR
B3: the binding result in [10] is given as “binds”.

B4: in vitro translated hBVR mutant K143A (enzyme)
chain: T1 sequence
notes: Site-directed mutant made in p507 and translated in vitro with [35S] methionine; also called K3 mutant
For the molecule B4, in [11], the binding result is given as “no binding”.

B5: in vitro translated hBVR mutant L157A (enzyme)
chain: T1 sequence with A143K, L157A
notes: Site-directed mutant made in p507 and translated in vitro with [35S] methionine; also called L5 mutant
On to B5, for which the binding result in data set [11] was “no binding”.

B6: in vitro translated hBVR mutant L150A (enzyme)
chain: T1 sequence with A143K, L150A
notes: Site-directed mutant made in p507 and translated in vitro with [35S] methionine; also called L4 mutant
As to B6, in data set [11], the binding result is on record as “no binding”.

B7: 56-mer, one AP-1 site (OL.627/OL.628) (dsDNA)
DNA 1: CACTGAGAGAAACTATTACACAAGCCACATTAGCATGACTCATTGTTTCTGATCAG
DNA 2: CTGATCAGAAACAATGAGTCATGCTAATGTGGCTTGTGTAATAGTTTCTCTCAGTG
For the molecule B7, the binding result in data set [12] and in [6] was “no binding” throughout.
